{"source": "paper PMC11375965", "about": "(Nature, 2024)", "proteins": {"B1": {"name": "human INF2 (inverted formin-2) residues 469-1249 (domain or fragment)", "chain": "not shown"}}, "molecular_target": "the molecule itself", "experiment": "cryo-EM structure"}
{"protein": "B1", "values": [{"measurement": "binding result", "value": "binds"}]}
